# Results: US20170165322A1 (CASE WESTERN RESERVE UNIVERSITY, published 2017)
# Molecular target: T1, Fc control (Fc fusion partner alone) (human, UniProt P01857-1 100-330 = IgG part, limits assumed)
# T1 construct: domain: Fc; Control protein, 'prepared as described previously'
# Assay: in vivo homing; anti-human Fc immunofluorescence on frozen sections of urethane-induced mouse lung tumors, 2 h after i.p. injection
# Description: First, we tested if systemically administered ephrin-A1-Fc could home to urethane-induced lung tumors that overexpress EphA2. Lung tumors were induced in wild type mice with urethane. Twenty-five weeks later, mice were injected i.p. with 5 μg/g ephrin-A1-Fc. Fc fusion partner alone was used as control. Two hours after injection, mice were sacrificed, and tumors were dissected out; frozen sections were subject to immunofluorescence staining to detect whether there was a selective homing of ephrin-A1-Fc to tumor tissues relative to control Fc. […] Both FITC-conjugated donkey anti-Fc and Texas-Red-conjugated goat anti-human Fc antibodies yielded similar patterns of selective tumor homing.
binder,measurement,value
"EphA2 kinase of mouse (urethane-induced lung tumors, primary keratinocytes, MEF, mouse lung tumor cell lines) (receptor, UniProt Q03145 26-977, looked up, whole, on cells) KEVVLLDFAAMKGELGWLTHPYGKGWDLMQNIMDDMPIYMYSVCNVVSGDQDNWLRTNWVYREEAERIFIELKFTVRDCNSFPGGASSCKETFNLYYAESDVDYGTNFQKRQFTKIDTIAPDEITVSSDFEARNVKLNVEERMVGPLTRKGFYLAFQDIGACVALLSVRVYYKKCPEMLQSLARFPETIAVAVSDTQPLATVAGTCVDHAVVPYGGEGPLMHCTVDGEWLVPIGQCLCQEGYEKVEDACRACSPGFFKSEASESPCLECPEHTLPSTEGATSCQCEEGYFRAPEDPLSMSCTRPPSAPNYLTAIGMGAKVELRWTAPKDTGGRQDIVYSVTCEQCWPESGECGPCEASVRYSEPPHALTRTSVTVSDLEPHMNYTFAVEARNGVSGLVTSRSFRTASVSINQTEPPKVRLEDRSTTSLSVTWSIPVSQQSRVWKYEVTYRKKGDANSYNVRRTEGFSVTLDDLAPDTTYLVQVQALTQEGQGAGSKVHEFQTLSTEGSANMAVIGGVAVGVVLLLVLAGVGLFIHRRRRNLRARQSSEDVRFSKSEQLKPLKTYVDPHTYEDPNQAVLKFTTEIHPSCVARQKVIGAGEFGEVYKGTLKASSGKKEIPVAIKTLKAGYTEKQRVDFLSEASIMGQFSHHNIIRLEGVVSKYKPMMIITEYMENGALDKFLREKDGEFSVLQLVGMLRGIASGMKYLANMNYVHRDLAARNILVNSNLVCKVSDFGLSRVLEDDPEATYTTSGGKIPIRWTAPEAISYRKFTSASDVWSYGIVMWEVMTYGERPYWELSNHEVMKAINDGFRLPTPMDCPSAIYQLMMQCWQQERSRRPKFADIVSILDKLIRAPDSLKTLADFDPRVSIRLPSTSGSEGVPFRTVSEWLESIKMQQYTEHFMVAGYTAIEKVVQMSNEDIKRIGVRLPGHQKRIAYSLLGLKDQVNTVGIPI",binding result,no binding (tested: 2.5 µg/ml Fc control (i.p.))
